Literature values, collected in patent publication US20170128542A1 (Albireo Pharma, Inc., priority 2015, published 2017).

Legend:
[1] = not given; remark: listed apart in the source

glucagon
Onset of action after injection: 5 to 20 min
Glucagon decomposed into degradation products ([1]; acidic solution (pH 2-4), within 24 hours at 37° C.): 5-70%
Aggregation in aqueous solutions of pH 3 or less ([1]; aqueous solution, pH 3 or less): aggregate to form a gel within an hour
